Literature values as cited in article PMC3674867.

Molecular target: caspase-3 (Homo sapiens) (UniProt P42574)
Assay: solid phase binding assay

Sequence of UniProt P42574 (P42574 176-277): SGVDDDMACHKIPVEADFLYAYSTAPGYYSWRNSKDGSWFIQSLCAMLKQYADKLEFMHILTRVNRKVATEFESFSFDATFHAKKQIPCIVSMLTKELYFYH

PAI-1 (from UniProt P05121)
Kd: 3 nM
